Results reported in IntAct's records for PubMed 25313826.

B1: Chromatin assembly factor 1 subunit A (Schizosaccharomyces pombe (strain ATCC 38366 / 972)), Q1MTN9 (parent)
chain: MNSESVDSDVAASTSNKGNELCSSSTDITSLSVSSPNESVIHSSHSASEADEYVCKLSYEGNRKKRIYNGSAEAGKEKKLQKQRAQEERIRQKEAERLKREKERQQREQEKKLREQEKIAAKKMKELEKLEKERIRLQEQQRRKEERDQKLREKEEAQRLRQEQILNKERQQLKLNNFFTKGVEKRIAPNENFVADKTDELNEFEKEFRPFFIKHQMSLSKYPSPNESDSFLDEVLSTSKSYPLKLNDIFTPSDAVSSANSLGVSNRNSENEVRQLMSAYQDPSVSKPQEILSCLSQIPIKFIFFYQDVRPPYFGSYTKTHSHGSNVLLNPWLEDEDIDYTYDSEAEWVADEEDDGEDLESEDEEVDNSDDIVEDGDNAFVDDEDDDKDSVNASNTHRSSGPLEVIVEGPVWDSKFLPDFNCLSLIEPISSFSASTYLQIDPKEDLWASQDTAPASSGMTIGPTSSLSDDLQVRFPSEDIPKFIEYVRNSHDNKVFLIENLRHMFPYVTKNIISETLGKVAVRKGKSVSDGWIIKENFASLLSS
partner: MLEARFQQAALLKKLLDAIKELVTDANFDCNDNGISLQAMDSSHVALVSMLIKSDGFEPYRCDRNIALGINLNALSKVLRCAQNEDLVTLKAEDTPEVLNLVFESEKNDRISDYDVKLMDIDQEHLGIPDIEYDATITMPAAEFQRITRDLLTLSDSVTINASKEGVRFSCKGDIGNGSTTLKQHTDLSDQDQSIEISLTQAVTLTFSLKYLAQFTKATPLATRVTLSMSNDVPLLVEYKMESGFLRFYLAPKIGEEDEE

Variants of: B1
Conditions: with pcna_schpo pcn1, Q03392

| Variant | effect of a mutation on the interaction |
| --- | --- |
| Q172A;L175A;F178A;F179A | disrupting interaction strength |
